From publication doi:10.1101/2021.10.06.463398, “Disruption of nucleoid expanded conformation by toxic aberrant proteins synthesized in Escherichia coli” (bioRxiv, 2021)
The star is where a group is joined. FITC = O=C1OC2(c3ccc(O)cc3Oc3cc(O)ccc32)c2ccc(NC(=S)*)cc21

Target: T1, 6His-DnaK (E. coli molecular chaperone DnaK) (E. coli, UniProt P0A6Y8 1-638)
T1 construct: No tag removal is described; also called purified E. coli DnaK protein; source: E. coli, ASKA expression clone, purified (Ni-NTA agarose)
Assay: MST; 20 nM fluorescein-labelled peptide with varying concentrations of DnaK; MST buffer (50 mM Tris pH 7.4, 150 mM NaCl, 10 mM MgCl2, 0.05% Tween-20, 0.05% bovine serum albumin); 1 h at 20°C; Monolith NT.115
Conditions: both partners purified

T1 sequence (P0A6Y8 whole entry): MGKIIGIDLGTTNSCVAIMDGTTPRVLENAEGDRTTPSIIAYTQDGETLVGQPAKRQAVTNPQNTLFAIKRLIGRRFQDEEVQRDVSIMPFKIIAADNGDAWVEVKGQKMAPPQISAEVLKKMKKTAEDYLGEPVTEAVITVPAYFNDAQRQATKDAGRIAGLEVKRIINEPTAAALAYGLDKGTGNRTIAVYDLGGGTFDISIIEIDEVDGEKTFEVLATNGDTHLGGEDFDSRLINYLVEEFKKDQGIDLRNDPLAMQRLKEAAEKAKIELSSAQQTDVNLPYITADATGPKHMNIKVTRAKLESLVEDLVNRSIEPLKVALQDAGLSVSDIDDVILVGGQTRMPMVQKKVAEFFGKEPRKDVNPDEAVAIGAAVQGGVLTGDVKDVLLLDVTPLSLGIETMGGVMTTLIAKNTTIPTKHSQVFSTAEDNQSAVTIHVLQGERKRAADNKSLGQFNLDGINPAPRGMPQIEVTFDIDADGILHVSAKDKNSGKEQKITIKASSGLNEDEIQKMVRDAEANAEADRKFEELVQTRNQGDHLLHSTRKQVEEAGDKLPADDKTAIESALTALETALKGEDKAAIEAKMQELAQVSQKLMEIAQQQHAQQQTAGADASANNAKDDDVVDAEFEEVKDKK

| Binder | binding result |
| --- | --- |
| {FITC}-TEKANRLLLTGKTEQ-NH2 (N-terminal extension TEKA, canonical DnaK substrate heptapeptide NRLLLTG, C-terminal extension KTEQ; source: synthetic peptide (Peptide 2.0, Inc.)) | binds |
| {FITC}-TEKAKLVIKLLALGKTEQ-NH2 (ARF48 is a 48-residue product of the +1 alternate reading frame of Arabidopsis thaliana cDNA At3G62370, not a natural protein), C-terminal extension KTEQ; The core decapeptide is not part of a natural protein: it is an alternate-reading-frame translation product; also called synthetic KL decapeptide; source: synthetic peptide (Peptide 2.0, Inc.)) [KL peptide, FITC-TEKAKLVIKLLALGKTEQ-NH2 (KL decapeptide of ARF48 with flanking extensions)] | binds |
